These are literature values, as cited in PMC8308721, “An Effective and Safe Enkephalin Analog for Antinociception” (Pharmaceutics, 2021).

pKd: −log10 of the molar value.

This data set addresses [3H]DADLE ([D-Ala2, D-Leu5]-enkephalin). Put plainly: radioligand.

In general, pKd refers to −log10 of the Kd, conventionally taken in molar units. For the substance “Delta opioid receptor (from UniProt P41143)”, the negative logarithm of the Kd (pKd) is 9.22.
